Reference: patent US8168160B2, “Anti-inflammatory fusion protein” (Eberhard-Karls-Universität Tübingen, priority 2006, dated 2012)

Experiments:
[1] = tested on: atherosclerotic plaque tissue; test: Immunohistological analysis of thrombus endarterectomy preparations of the Arteria carotis; assay type: binding; conditions: human thrombus endarterectomy preparations of Arteria carotis (FIG. 5B)
Method: (§1) Atherosclerotic plaques from the carotid of patients, removed within the context of a surgery, were disintegrated, suspended, transferred to culture plates and surface-dried. Then a specific ELISA against the Fc portion of the CD68 or GPVI or pure Fc, respectively, was performed. In a parallel immunohistological analysis of human tissue from thrombus endarterectomy preparations of the Arteria carotis were performed.

[2] = tested on: foam cell formation from CD34+ stem cells co-cultivated with thrombocytes; test: Foam cell formation by co-cultivation of CD34+ stem cells with thrombocytes, counted by phase contrast microscopy; assay type: cell-based, human
Method: To isolate human thrombocytes venous blood was withdrawn from healthy test persons and collected into acidic citrate dextrose (ACD) buffer. After the centrifugation at 430 g for 20 minutes the platelet-rich plasma (PRP) was removed, added to Tyrodes HEPES buffer (2.5 mM HEPES, 150 mM NaCl, 1 mM […], 2.5 mM NaHCO3, 0.36 mM NaH2PO4, 5.5 mM glucose, 1 mg/ml BSA, pH 6.5) and centrifuged at 900 g for 10 minutes. After the removal of the supernatant the thrombocyte containing pellet was suspended in Tyrodes HEPES buffer (pH 7.4).
Human CD34^+ cells were isolated from human cord blood. This was obtained after the approval of the local ethics committee from healthy women immediately after the birth of a child. At least 95% of the isolated cells were positive for CD34^+ which was confirmed by means of flow cytometry analysis after each isolation. Human mononuclear cells were also obtained from cord blood by density gradient centrifugation on the Biocoll separation solution (BIOCROM Berlin, Germany) at 600 g for 15 minutes. CD34^+ cells were enriched by immunoaffinity selection (CD34 progenitor cell isolation kit; Milteenyi Biotec, Bergisch Gladbach, Germany) according to the manual of the producer. In the following the cells were incubated on 96 well plates which were covered with 0.2% gelatine. For the cultivation of the cells IMDM with glutamax, supplemented with 5% heat-inactivated fetal calf serum, […] penicillin-streptomycin, 1% MEM vitamins and 1% non-essential amino acids were used, all purchased from Gibco (Invitrogen, Karlsruhe, Germany). CD34^+ progenitor cells (50000 cells) were co-cultivated at 37° C. and 5% CO2 with thrombocytes (2×10^8-ml) in 96 well plates which were pre-covered with 0.2% gelatine. The formation of foam cells was counted in six windows by means of phase contrast microscopy.
Foam cells were produced by co-incubation of CD34^+ stem cells with thrombocytes for 10 days in vitro. […] In the following it was microscopically analyzed whether the foam cell formation was inhibited by the incubation with the CD68-Fc homodimers. […]

MMP-9 = MMP-9 expression in the supernatant of foam cells; assay type: cell-based, human
Method: Moreover the method of ROS (“Reactive Oxygen Species”) measurement was used. Typically in the course of an inflammation process monocytes infiltrate the vascular wall, there differentiate into macrophages and produce cytokines, proteases such as the matrix metalloproteinase (MMP) and complement factors, but also free oxidized radicals, i.e. ROS. For the foam cells resulting from the co-incubation of CD34^+ stem cells with thrombocytes in vitro it was detected that they release ROS and also produce matrix metalloproteinase 9 (MMP-9).
The bands correspond to the expression level of MMP-9. In the corresponding lanes the following samples were loaded: 1. control CD34, 2. control CD34, 3. control protein 100 µg/ml, 4. control protein 400 μg/ml, 5. CD68-Fc homodimer 100 µg/ml, 6. CD68-Fc homodimer 200 µg/ml, 7. CD68-Fc homodimer 400 µg/ml, 8. Fluvastatin 1 μM.

[3] = tested on: atherosclerotic vessels of Apo E mice; test: In vivo application of J124-labeled CD68-Fc, ex vivo autoradiography of vessels; conditions: A. carotis; Apo E mice in relation to wild type (FIG. 6)
Method: Furthermore an in vivo application of J124-labeled CD68-Fc in atherosclerotic Apo E mice and in wild type mice was performed. J124-labeled CD68-Fc was administered into 24 weeks old atherosclerotic mice or in control wild type mice without any significant atherosclerosis. The organs were then removed and the A. carotis on both sides and the aortic arch were analyzed by autoradiography ex vivo.
A staining with oil-red and a corresponding autoradiography is shown in partial figure (B).

[4] = tested on: atherosclerotic plaque tissue from the carotid of patients; test: Specific Fc-ELISA on atherosclerotic plaques in vitro; assay type: binding; conditions: disintegrated, surface-dried human carotid plaques (FIG. 5A)
Method: as §1

[5] = increasing concentrations (summary statement)

binding to atherosclerotic plaque tissue (immunohistology) [1]: significant binding
binding to atherosclerotic plaque tissue (Fc-ELISA) [4]: significant binding
B1: CD68-Fc homodimer: Fusion of extracellular domain of human CD68 with mutated human IgG1 Fc via three amino acid connecting element (SEQ ID No. 6), secreted as disulfide-linked homodimer (protein)
chain: NDCPHKKSATLLPSFTVTPTVTESTGTTSHRTTKSHKTTTHRTTTTGTTSHGPTTATHNPTTTSHGNVTVHPTSNSTATSQGPSTATHSPATTSHGNATVHPTSNSTATSPGFTSSAHPEPPPPSPSPSPTSKETIGDYTWTNGSQPCVHLQAQIQIRVMYTTQGGGEAWGISVLNPNKTKVQGSCEGAHPHLLLSFPYGHLSFGFMQDLQQKVVYLSYMAVEYNVSFPHAAQWTFSAQNASLRDLQAPLGQSFSCSNSSIILSPAVHLDLLSLRLQAAQLPHTGVFGQSFSCPSDRSGGRESKSCDKTHTCPPCPAPEAAAAPSVFLFPPKPKDTLMISRTPEVTCVVVDVSHEDPEVKFNWYVDGVEVHNAKTKPREEQYNSTYRVVSVLTVLHQDWLNGKEYKCKVSNKALPASIEKTISKAKGQPREPQVYTLPPSRDELTKNQVSLTCLVKGFYPSDIAVEWESNGQPENNYKTTPPVLDSDGSFFLYSKLTVDKSRWQQGNVFSCSVMHEALHNHYTQKSLSLSPGK
modifications: homodimer; Recombinant CD68-Fc fusion protein
foam cell formation ([2]; co-incubation of CD34+ stem cells with thrombocytes for 10 days in vitro, microscopic analysis (FIG. 3B)): inhibited the formation of the foam cells
foam cell formation, dependence on dosage ([2]; concentration of 400 μg/ml, pure Fc as control (FIG. 3C)): virtually completely inhibited
formation of foam cells in co-cultivation assays in vitro [2, 5]: significant inhibition of the formation of foam cells
expression of MMP-9 in the supernatant of foam cells (MMP-9; 100, 200 and 400 μg/ml (lanes 5, 6, 7), in relation with control protein (FIG. 4)): clear inhibition of the formation of MMP-9
secretion of MMP-9 by foam cells (MMP-9; [5]): can be inhibited
accumulation in vessels (autoradiography ex vivo) [3]: No significantly increased accumulation
